Values joined by “and” are separate entries in the source; they are usually repeats but may differ in a detail not shown here. Equal entries are not always repeated.
Legend:
human CD33 [1] = target: T1, human CD33 (human, UniProt P20138 18-364); test: cell-based or functional assay
human CD33 [2] = target: T1, human CD33; test: flow cytometry, CHO cells expressing recombinant human CD33, 10 ug/ml antibody, PE secondary
human CD33 [3] = target: T1, human CD33; test: flow cytometry, human primary macrophages, 10 ug/ml antibody
human CD33 [4] = target: T1, human CD33; test: flow cytometry, human primary dendritic cells, 10 ug/ml antibody
CD33-Fc (human) = CD33-Fc (human) (UniProt P20138); test: red blood cell solid adhesion assay, plate-bound CD33-Fc, antibody at 1.0 ug/ml; competitor: ligands on red blood cells; % of RBC binding without antibody
human CD33 [5] = target: T1, human CD33; test: flow cytometry, human primary monocytes, 10 ug/ml antibody
Y49A = test: alanine-scanning library in HEK-293T cells, immunofluorescence by flow cytometry; mean of duplicates, mock-subtracted, normalised to wild-type CD33; range in parentheses
Sequence of Y49A (receptor chain, as listed by the source Y49A Y49A limits assumed): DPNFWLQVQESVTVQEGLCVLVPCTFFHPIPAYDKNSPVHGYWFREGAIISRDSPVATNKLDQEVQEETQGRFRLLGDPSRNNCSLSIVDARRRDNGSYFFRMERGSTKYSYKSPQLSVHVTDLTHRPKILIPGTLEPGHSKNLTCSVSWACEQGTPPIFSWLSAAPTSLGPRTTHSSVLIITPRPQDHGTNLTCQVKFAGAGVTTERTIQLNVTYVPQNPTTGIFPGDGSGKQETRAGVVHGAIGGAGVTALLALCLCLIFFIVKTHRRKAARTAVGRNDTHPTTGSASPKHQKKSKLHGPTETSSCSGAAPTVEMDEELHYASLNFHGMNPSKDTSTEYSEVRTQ

P46A = test: as above
Sequence of P46A (receptor chain, as listed by the source P46A P46A limits assumed): as the sequence (receptor chain, as listed by the source Y49A Y49A limits assumed) above, with P29A, A32Y counted along it

F21A = test: as above
Sequence of F21A (receptor chain, as listed by the source F21A F21A limits assumed): as the sequence (receptor chain, as listed by the source Y49A Y49A limits assumed) above, with F4A, A32Y counted along it

F44A = test: as above
Sequence of F44A (receptor chain, as listed by the source F44A F44A limits assumed): as the sequence (receptor chain, as listed by the source Y49A Y49A limits assumed) above, with F27A, A32Y counted along it

P19A = test: as above
Sequence of P19A (receptor chain, as listed by the source P19A P19A limits assumed): as the sequence (receptor chain, as listed by the source Y49A Y49A limits assumed) above, with P2A, A32Y counted along it

Y50A = test: as above
Sequence of Y50A (receptor chain, as listed by the source Y50A Y50A limits assumed): as the sequence (receptor chain, as listed by the source Y49A Y49A limits assumed) above, with A32Y, Y33A counted along it

N20A = test: as above
Sequence of N20A (receptor chain, as listed by the source N20A N20A limits assumed): as the sequence (receptor chain, as listed by the source Y49A Y49A limits assumed) above, with N3A, A32Y counted along it

D18A = test: as above
Sequence of D18A (receptor chain, as listed by the source D18A D18A limits assumed): as the sequence (receptor chain, as listed by the source Y49A Y49A limits assumed) above, with D1A, A32Y counted along it

N53A = test: as above
Sequence of N53A (receptor chain, as listed by the source N53A N53A limits assumed): as the sequence (receptor chain, as listed by the source Y49A Y49A limits assumed) above, with A32Y, N36A counted along it

K52A = test: as above
Sequence of K52A (receptor chain, as listed by the source K52A K52A limits assumed): as the sequence (receptor chain, as listed by the source Y49A Y49A limits assumed) above, with A32Y, K35A counted along it

human CD33 [6] = target: T1, human CD33; test: flow cytometry binding curve on human primary dendritic cells, about 0.003-3 nM antibody
[7] = target: histidine-tagged human CD33 (Sino Biological) (human, UniProt P20138 18-364); test: SPR (BiaCore T200, 25 C), antibody captured on anti-mouse IgG chip, 20 nM His-tagged CD33 in solution, single-concentration 1:1 fit; apparent KD
Sequence of histidine-tagged human CD33 (Sino Biological) (P20138 18-364): as the sequence (receptor chain, as listed by the source Y49A Y49A limits assumed) above, with A32Y counted along it

human CD33 [8] = target: T1, human CD33; test: flow cytometry binding curve on human primary dendritic cells, about 0.003-3 nM antibody (FIG. 5H)

T1 sequence (P20138 18-364 limits assumed): as the sequence (receptor chain, as listed by the source Y49A Y49A limits assumed) above, with A32Y counted along it

Row | % CD33 surface expression, U937 cells (FACS, 1.0 ug/ml antibody, 24 h, % of no antibody) (human CD33 [1]) | % CD33 surface expression, human microglial cells (FACS, % of no antibody) (human CD33 [1]) | % CD33 surface expression, human primary dendritic cells (FACS, 1.0 ug/ml antibody, 24 h, % of no antibody) (human CD33 [1]) | % CD33 surface expression, human primary macrophages (FACS, 1.0 ug/ml antibody, 24 h, % of no antibody) (human CD33 [1]) | % CD33 surface expression, human primary monocytes (FACS, 1.0 ug/ml antibody, 24 h, % of no antibody) (human CD33 [1]) | % Positive (human CD33 [2]) | MFI (human CD33 [2]) | % Positive (human CD33 [3]) | MFI (human CD33 [3]) | % Positive (human CD33 [4]) | MFI (human CD33 [4]) | Percent RBC Binding to CD33 (CD33-Fc (human)) | % Positive (human CD33 [5]) | MFI (human CD33 [5]) | Binding Reactivity (% WT) (Y49A) | Binding Reactivity (% WT) (P46A) | Binding Reactivity (% WT) (F21A) | Binding Reactivity (% WT) (F44A) | EC50 (human CD33 [6]) | Kd [7] | Molecule | other results
1 | 95.7% | 92.1% | 70.5% | 95.4% | 104% | 0.47% | 227 | 4.16% | 1220 | 1.97% | 861 | 83.8% | 2.38% | 109 |  |  |  |  |  |  | isotype mIgG1 control antibody | 
2 |  |  |  |  |  |  |  |  |  |  |  |  |  |  | 1.7 % WT | 152 % WT | 137 % WT | 76.5 % WT |  |  | WM53 MAb (antibody) | Binding Reactivity (% WT) (P19A): 116 % WT; Binding Reactivity (% WT) (Y50A): 75.1 % WT; Binding Reactivity (% WT) (N20A): 166 % WT; Binding Reactivity (% WT) (D18A): 98 % WT; Binding Reactivity (% WT) (N53A): 164 % WT; Binding Reactivity (% WT) (K52A): 12.4 % WT
3 |  |  |  |  |  |  |  |  |  |  |  |  |  |  |  |  |  |  | 0.845 nM |  | anti-CD33 antibody lintuzumab (antibody, V domains shown, Commercially available antibody) VH: QVQLVQSGAEVKKPGSSVKVSCKASGYTFTDYNMHWVRQAPGQGLEWIGYIYPYNGGTGYNQKFKSKATITADESTNTAYMELSSLRSEDTAVYYCARGRPAMDYWGQGTLVTVSS VL: DIQMTQSPSSLSASVGDRVTITCRASESVDNYGISFMNWFQQKPGKAPKLLIYAASNQGSGVPSRFSGSGSGTDFTLTISSLQPDDFATYYCQQSKEVPWTFGQGTKVEIKR | 
4 |  |  |  |  |  |  |  |  |  |  |  | 10% |  |  |  |  |  |  |  | 6 nM | anti-CD33 antibody 1A8 (antibody, V domains shown, Mouse hybridoma antibody; mIgG1 served as isotype control; also called 1A8.2) VH: QVQLQQSGAELVKPGASVKLSCKASGYTFTSYDINWVRQRPEQGLEWIGWIFPGDGSTKYNEKFKGKATLTTDKSSNTTYMQLSRLTSEDSAVYFCARGYHYAMDSWGQGTSVTVSS VL: DIKMTQSPSSMYESLGERVTITCKASQDINKYLSWLQQKPGKSPKTLIYRANRLVDGVPSRFSGSGSGQDYSLTISSLEYEDMGIYHCLQYDEFPLTFGAGTKLELK | 
5 |  |  |  |  |  |  |  |  |  |  |  |  |  |  |  |  |  |  | 0.613 nM | 1.1 nM | anti-CD33 antibody gemtuzumab (antibody, V domains shown, Commercially available antibody) VH: EVQLVQSGAEVKKPGSSVKVSCKASGYTITDSNIHWVRQAPGQSLEWIGYIYPYNGGTDYNQKFKNRATLTVDNPTNTAYMELSSLRSEDTAFYYCVNGNPWLAYWGQGTLVTVSS VL: DIQLTQSPSTLSASVGDRVTITCRASESLDNYGIRFLTWFQQKPGKAPKLLMYAASNQGSGVPSRFSGSGSGTEFTLTISSLQPDDFATYYCQQTKEVPWSFGQGTKVEVKR | EC50 for reducing cell surface expression of CD33 (12-point 2-fold titration, FACS) (human CD33 [1]): 0.107 nM
6 | 46.7% | 25% | 15.9% | 58.7% | 23.3% | 87% | 9520 | 96.7% | 2510 | 99% | 4300 | 11.5% | 97.5% | 1200 | 20.6 % WT | 105 % WT | 122 % WT | 102 % WT | 0.138 nM | 0.3 nM | anti-CD33 antibody 2F5 (antibody, V domains shown, Mouse hybridoma antibody, tested under the label 2F5; also called C-2F5; 2F5 mAb) VH: EVQLQQSGPELVKPGASVKISCKASGYTFTDYNLHWVKLSHGKSLEWIGFIYPSNGITGYNQKFKNKATLTVDNSSSTAYMELRSLTSEDSAVYYCARSTVDYFDYWGQGTTLTVSS VL: ZTQSLASLAVSLGQRATMSCRASQSVSTSTYSYMHWYQQKPGQPPKLLIKYASNLECGVPARFSGSGZGTDFTLNIHPVEEEDSATYYCQHSWEIPLTFGGGTKLEMK | EC50 for reducing cell surface expression of CD33 (12-point 2-fold titration, FACS) (human CD33 [1]): 0.0215 nM; cell surface CD33 on hCD45+ hCD14+ blood cells of hu-NSGS mice (FACS, 40 mg/kg i.p.) (human CD33 [1]): 80%; cell surface CD33 on human primary monocytes at 0.001 ug/ml antibody (FACS, % of no antibody) (human CD33 [1]): 50% and 30%; cell surface CD33 on human primary monocytes at 0.01 ug/ml antibody (FACS, % of no antibody) (human CD33 [1]): 20%; cell surface CD33 on peripheral human CD45+ CD14+ monocytes of humanized NOG mice (FACS, single i.p. dose) (human CD33 [1]): 50%; fold improvement over gemtuzumab in reducing cell surface levels of CD33 on human primary monocytes (human CD33 [1]): 10 fold; fold improvement over lintuzumab in reducing cell surface levels of CD33 on human primary monocytes (human CD33 [1]): 100 fold; Binding Reactivity (% WT) (P19A): 102 % WT; Binding Reactivity (% WT) (Y50A): 32.7 % WT; Binding Reactivity (% WT) (N20A): 111 % WT; Binding Reactivity (% WT) (D18A): 79.5 % WT; Binding Reactivity (% WT) (N53A): 78.2 % WT; Binding Reactivity (% WT) (K52A): 8.9 % WT; EC50 (human CD33 [8]): < 0.2 nM

Reference: patent US20190002560A1 (Alector, published 2019)
